Measurements reported in patent US20230383012A1 (Xencor, published 2023).

Molecular target: T1, human PDL1 (human, UniProt Q9NZQ7 19-238)
T1 construct: his-tagged in the Carterra assay; also called PDL1 antigen
Test: descriptor in the SEB-stimulated PBMC example

Binder	binding result
XENP39368 (bispecific antibody) heavy: EVQLLESGGGLVQPGGSLRLSCAASGFTFSSYDMSWVRQAPGKRLEWVSTISSGGSFTHYPDSVKGRFTISRDNSKNTLYLQMNSLRAEDTAVYYCARRSLDWYFDVWGAGTTVTVSSASTKGPSVFPLAPSSKSTSGGTAALGCLVKDYFPEPVTVSWNSGALTSGVHTFPAVLQSSGLYSLSSVVTVPSSSLGTQTYICNVNHKPSDTKVDKKVEPKSCDKTHTCPPCPAPPVAGPSVFLFPPKPKDTLMISRTPEVTCVVVDVKHEDPEVKFNWYVDGVEVHNAKTKPREEEYNSTYRVVSVLTVLHQDWLNGKEYKCKVSNKALPAPIEKTISKAKGQPREPQVYTLPPSREEMTKNQVSLTCDVSGFYPSDIAVEWESDGQPENNYKTTPPVLDSDGSFFLYSKLTVDKSRWEQGDVFSCSVMHEALHNHYTQKSLSLSPGK scFv-Fc: not shown light: EIVLTQSPGTLSLSPGERATLSCRVSSSIQSTNLHWYQQKPGQSPRPLIYGTSVLATGVPVRFSGSGSGTDYTLTISRLEPEDFAVYYCQQWSSYPLYTFGGGTKVEIKRTVAAPSVFIFPPSDEQLKSGTASVVCLLNNFYPREAKVQWKVDNALQSGNSQESVTEQDSKDSTYSLSSTLTLSKADYEKHKVYACEVTHQGLSSPVTKSFNRGEC	binds
XENP39365 (bispecific antibody) heavy: EVQLLESGGGLVQPGGSLRLSCAASGFTFSSYDMSWVRQAPGKRLEWVSTISSGGSFTHYPDSVKGRFTISRDNSKNTLYLQMNSLRAEDTAVYYCARRSLDWYFDVWGAGTTVTVSSASTKGPSVFPLAPSSKSTSGGTAALGCLVKDYFPEPVTVSWNSGALTSGVHTFPAVLQSSGLYSLSSVVTVPSSSLGTQTYICNVNHKPSDTKVDKKVEPKSCDKTHTCPPCPAPPVAGPSVFLFPPKPKDTLMISRTPEVTCVVVDVKHEDPEVKFNWYVDGVEVHNAKTKPREEEYNSTYRVVSVLTVLHQDWLNGKEYKCKVSNKALPAPIEKTISKAKGQPREPQVYTLPPSREEMTKNQVSLTCDVSGFYPSDIAVEWESDGQPENNYKTTPPVLDSDGSFFLYSKLTVDKSRWEQGDVFSCSVMHEALHNHYTQKSLSLSPGK scFv-Fc: not shown light: EIVLTQSPGTLSLSPGERATLSCRVSLSIQSSNLHWYQQKPGQSPRPLIYGTNLLASGVPVRFSGSGSGTDYTLTISRLEPEDFAVYYCQQWSSYPLYTFGGGTKVEIKRTVAAPSVFIFPPSDEQLKSGTASVVCLLNNFYPREAKVQWKVDNALQSGNSQESVTEQDSKDSTYSLSSTLTLSKADYEKHKVYACEVTHQGLSSPVTKSFNRGEC	binds
